Molecular target: W619_1-LOV, short LOV protein from Pseudomonas putida (Pseudomonas putida)
Assay: crystal structure; apo-state; sitting drops grown in the dark, 100 mM MES pH 6.0-6.3, 1 M ammonium sulfate, 14 °C; space group I4(1), two molecules per asymmetric unit

stoichiometry N: 2
Substance: W619_1-LOV, short LOV protein from Pseudomonas putida (natural protein)

From article PMC5314338, “Structure of a LOV protein in apo-state and implications for construction of LOV-based optical tools” (Scientific Reports, 2017)
